Test results published in patent publication US20170313756A1.
Read-outs that look alike come from different tables or passages of the source.

Experiments:
Assay in all cases: 125I-NDP-MSH competition, HEK293 membranes
[1] = target: melanocortin 1 receptor (MC1R) (UniProt Q01726)
[2] = target: melanocortin 5 receptor (MC5R) (UniProt P33032)
[3] = target: melanocortin 1 receptor (MC1R) (UniProt Q01726); remark: listed apart in the source
[4] = target: melanocortin 1 receptor (MC1R) (UniProt Q01726); remark: listed apart in the source

melanocortin 1 receptor (MC1R), sequence (Q01726 whole entry): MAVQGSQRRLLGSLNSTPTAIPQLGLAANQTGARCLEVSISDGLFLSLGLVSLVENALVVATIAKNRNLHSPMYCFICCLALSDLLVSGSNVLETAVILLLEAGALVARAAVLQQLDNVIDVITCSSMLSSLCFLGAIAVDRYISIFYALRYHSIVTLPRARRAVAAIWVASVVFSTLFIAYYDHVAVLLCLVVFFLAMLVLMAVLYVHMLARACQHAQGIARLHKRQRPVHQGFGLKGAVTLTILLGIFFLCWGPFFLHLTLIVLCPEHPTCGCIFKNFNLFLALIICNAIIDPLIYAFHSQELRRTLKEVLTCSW
melanocortin 5 receptor (MC5R), sequence (P33032 whole entry): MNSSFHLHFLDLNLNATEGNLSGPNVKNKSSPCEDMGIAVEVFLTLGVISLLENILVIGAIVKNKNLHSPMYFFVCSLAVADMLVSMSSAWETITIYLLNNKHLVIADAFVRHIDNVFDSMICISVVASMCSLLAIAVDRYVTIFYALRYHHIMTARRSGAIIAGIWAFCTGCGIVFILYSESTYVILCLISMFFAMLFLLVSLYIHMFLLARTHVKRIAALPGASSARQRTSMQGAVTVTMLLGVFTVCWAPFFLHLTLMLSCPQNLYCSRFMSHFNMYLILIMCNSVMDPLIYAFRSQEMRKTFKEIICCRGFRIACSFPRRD

Ki [1]: 4 nM
Ki [2]: 25000 nM
Ki [3]: 4.6 nM
Ki [4]: 4.1 nM
Substance: retro-inverso α-MSH (peptide)
